Read-outs that look alike come from different tables or passages of the source.
B1: sel36 (dsDNA)
DNA 1: GATTCACAGCTGATTCACAGCATCTAG
DNA 2: CTAGATGCTGTGAATCAGCTGTGAATC
B2: sel36m (dsDNA)
DNA 1: GATTCACAGCTGATACACAGGATCTAG
DNA 2: CTAGATCCTGTGTATCAGCTGTGAATC

How the values were obtained:
PhoP [1] = molecular target: T1, PhoP (Mycobacterium tuberculosis, UniProt P71814 1-247); assay: ITC
PhoP [2] = molecular target: T1, PhoP; assay: ITC; remark: listed apart in the source

Binder	Kd (PhoP [1]) [nM]	Kd (PhoP [2]) [nM]
B1	8.03 ± 3.42	–
B2	–	32.3 ± 4.12
